Results from patent publication US20240002495A1 (MITSUBISHI TANABE PHARMA, published 2024).
Where no end group is shown, it is not given here.

T1: recombinant human IL-33 protein (residues 112 to 270) (ILC0701, ATGen Co. Ltd) (human, UniProt O95760 112-270)
T1 construct: bought protein
T1 sequence: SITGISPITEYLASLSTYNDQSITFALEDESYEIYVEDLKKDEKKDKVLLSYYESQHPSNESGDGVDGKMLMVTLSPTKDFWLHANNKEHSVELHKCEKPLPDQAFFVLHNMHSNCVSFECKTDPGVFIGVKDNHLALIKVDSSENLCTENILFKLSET

T2: full-length human IL-33 protein (human, UniProt O95760 1-270)
T2 construct: also called Human IL-33 (Full-Length)
T2 sequence: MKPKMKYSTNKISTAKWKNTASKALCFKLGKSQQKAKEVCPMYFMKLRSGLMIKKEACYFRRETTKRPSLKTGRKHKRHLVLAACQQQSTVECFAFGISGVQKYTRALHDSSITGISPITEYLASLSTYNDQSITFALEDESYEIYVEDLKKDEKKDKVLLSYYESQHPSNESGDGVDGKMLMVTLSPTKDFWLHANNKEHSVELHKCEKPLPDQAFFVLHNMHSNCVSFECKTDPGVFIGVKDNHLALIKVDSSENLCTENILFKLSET

T3: DQSITFALEDESYEIYVEDL (PEP14) (human, not fully specified)
T3 peptide: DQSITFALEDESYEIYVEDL

T4: EDESYEIYV (human, not fully specified (N-terminus))
T4 construct: synthetic peptide
T4 peptide: EDESYEIYV

T5: LEDESYEIYV (human, not fully specified (N-terminus))
T5 construct: synthetic peptide
T5 peptide: LEDESYEIYV


How the values were obtained:
[1] = molecular target: T1, recombinant human IL-33 protein …; test: KinExA in PBS, alkaline-purified IgG
Procedure: (§1) Mixture samples of a test antibody and a human IL-33 protein (ILC0701, available from ATGen Co. Ltd) were prepared. The human IL-33 protein was titrated to a constant concentration of test antibody (final concentration: several tens of pM to several hundreds of pM) over a wide concentration range of the human IL-33 protein (so that it covered the concentrations of the human IL-33 protein resulting from 12-step serial doubling dilutions, i.e. one- to 2048-fold, with the upper limit of final concentration set to several nM to several tens of nM). The mixture samples were incubated at a room temperature until the antigen-antibody reaction reached equilibrium. After the reaction reached equilibrium, the percentage of free anti-IL-33 antibody in each sample was analyzed using KinExA3200. The values of Kd were calculated by fitting the plot of percentages of anti-IL-33 antibody not bound to the human IL-33 protein (vertical axis) and concentrations of antigen (horizontal axis) to a theoretical formula, using a KinExA data analysis program (KinExA Pro Software v3.5.3, available from Sapidyne Instruments, Inc.). Beads for capturing the anti-IL-33 antibody were prepared by suspending 50 mg of Azlactone beads (Sapidyne) in 1 mL of coating solution (10 μg/mL human IL-33 protein (ILC0701, available from ATGen Co. Ltd), 50 mM sodium carbonate at pH of 9.6) and incubating the solution at a room temperature for one hour. The antibody for detection used was anti-human F(ab)′2-DyLight649 (Jackson, 309-495-006).

[2] = molecular target: T1, recombinant human IL-33 protein …; test: cell-based or functional assay
[3] = molecular target: T1, recombinant human IL-33 protein …; test: KinExA in PBS, neutral-purified IgG
Procedure: Each test antibody (IgG) (“antibody (IgG)” indicates an antibody having a molecular form of IgG; hereinafter, the same representation is used) was analyzed to confirm the affinity with the human IL-33 protein by measuring dissociation constant (Kd) between each test antibody and the human IL-33 protein in PBS by kinetic exclusion assay (KinExA) (KinExA3200, available from Sapidyne Instruments, Inc.). Mixture samples of a test antibody and a human IL-33 protein (ILC0701, available from ATGen Co. Ltd) were prepared. The human IL-33 protein was titrated to a constant concentration of test antibody (final concentration: several tens of pM to several hundreds of pM) over a wide concentration range of the human IL-33 protein (so that it covered the concentrations of the human IL-33 protein resulting from 12-step serial doubling dilutions, i.e. one- to 2048-fold, with the upper limit of final concentration set to several nM to several tens of nM). The mixture samples were incubated at a room temperature until the antigen-antibody reaction reached equilibrium. After the reaction reached equilibrium, the percentage of free anti-IL-33 antibody in each sample was analyzed using KinExA3200. The values of Kd were calculated by fitting the plot of percentages of anti-IL-33 antibody not bound to the human IL-33 protein (vertical axis) and concentrations of antigen (horizontal axis) to a theoretical formula, using a KinExA data analysis program (KinExA Pro Software v3.5.3, available from Sapidyne Instruments, Inc.). Beads for capturing the anti-IL-33 antibody were prepared by suspending 50 mg of Azlactone beads (Sapidyne) in 1 mL of coating solution (10 μg/mL human IL-33 protein (ILC0701, available from ATGen Co. Ltd), 50 mM sodium carbonate at pH of 9.6) and incubating the solution at a room temperature for one hour. The antibody for detection used was anti-human F(ab)′2-DyLight649 (Jackson, 309-495-006).

[4] = molecular target: T1, recombinant human IL-33 protein …; test: SPR (Biacore T200), human IL-33 (ILC0701) immobilized on CM5, Calibration Free Concentration Analysis of the preserved antibody against a control-preserved sample
Procedure: Each alkaline-purified antibody was dissolved in a citrate buffer (50 mM citric acid; 150 mM NaCl (pH: 6.3)) at a concentration of about 10 mg/mL, and was preserved at a temperature of 40° C. for four weeks, to evaluate the preservation stability of each test antibody (IgG). For evaluation of the monomer purity of each antibody after the preservation, monomer purity was measured by size exclusion chromatography analysis (SEC) and microchip capillary SDS electrophoresis (mCE-SDS), and antigen-binding activity was measured by surface plasmon resonance.
In order to confirm the presence of the antigen-binding ability after the preservation, the antigen-binding activity was measured with a surface plasmon resonance system, Biacore T200 (available from GE Healthcare). A human IL-33 protein (ILC0701, available from ATGen Co. Ltd) was immobilized onto a Sensor Chip CM5 (GE Healthcare) (the amount of immobilized protein was about 3000 to 6000 RU) with Amine Coupling Kit (GE Healthcare). Each preserved antibody solution was then diluted to 10-fold with a citric buffer (50 mM citric acid, 150 mM NaCl (pH: 6.3)), and the resulting solution was analyzed to measure the total protein concentration in the solution, using a microvolume spectrophotometer, Astragene II (Astranet Systems, Ltd.) (protein concentration: about 1 mg/mL). The antibody solution after the measurement of the total protein concentration was diluted to 1000-fold with HBS-EP buffer (10 mM HEPES, 150 mM NaCl, 3 mM EDTA, 0.05% (v/v) Surfactant P20 (at pH of 7.4)). The analyte was thereby prepared. The measurement temperature was 25° C. Each analyte was added for 36 seconds at two flow rates of 5 μL/min and 100 μL/min to obtain sensorgrams of the association phase. The sensorgrams were then analyzed by Calibration Free Concentration Analysis using a data analysis program (GE Healthcare, Biacore T200 Evaluation Software v1.0) to determine the concentration of the antibody having antigen-binding activity. As control, each test antibody after preservation at a temperature of 4° C. for four weeks was also analyzed to confirm the antigen-binding activity, to calculate the ratio of antigen-binding activity of each test antibody after the preservation at a temperature of 40° C. for four weeks.

[5] = molecular target: T2, full-length human IL-33 protein; test: KinExA in PBS, alkaline-purified IgG
Procedure: as §1

[6] = molecular target: T3, DQSITFALEDESYEIYVEDL (PEP14); test: KinExA, alkaline-purified IgG, peptide
Procedure: (§2) The mixture samples were incubated at a room temperature until the antigen-antibody reaction reached equilibrium. After the reaction reached equilibrium, the percentage of free anti-IL-33 antibody in each sample was analyzed using KinExA3200. The values of Kd were calculated by fitting the plot of percentages of anti-IL-33 antibody not bound to the human IL-33 protein (vertical axis) and concentrations of antigen (horizontal axis) to a theoretical formula, using a KinExA data analysis program (KinExA Pro Software v3.5.3, available from Sapidyne Instruments, Inc.). Beads for capturing the anti-IL-33 antibody were prepared by suspending 50 mg of Azlactone beads (Sapidyne) in 1 mL of coating solution (10 μg/mL human IL-33 protein (ILC0701, available from ATGen Co. Ltd), 50 mM sodium carbonate at pH of 9.6) and incubating the solution at a room temperature for one hour. The antibody for detection used was anti-human F(ab)′2-DyLight649 (Jackson, 309-495-006).
(§3) The anti-IL-33 monoclonal antibodies A10-1C04 and A25-3H04 bound to the epitope PEP14 as described in the Example 1. […] These peptides were synthesized, and the affinity with the alkali-purified antibodies was calculated as Kd by the KinExA experiment as in Example 9 (Table 14).

EDESYEIYV = molecular target: T4, EDESYEIYV; test: KinExA, alkaline-purified IgG, peptide
Procedure: as §2, §3

LEDESYEIYV = molecular target: T5, LEDESYEIYV; test: KinExA, alkaline-purified IgG, peptide
Procedure: as §2, §3

Binder	Kd [1] [pM]	IC50 of inhibition of IL-6 production by HUVEC (alkaline-purified IgG, human IL-33 100 ng/mL) [2] [µg/mL]	inhibition of IFN-γ production by human PBMC (alkaline-purified IgG 10 ug/mL, IL-33 10 ng/mL, IL-12 10 ng/mL) [2] [%]	inhibition of production of IL-5 and IL-13 by KU-812 cells (alkaline-purified IgG 1 ug/mL; IL-33 3 ng/mL with IL-3 and C5a) [2] [%]	percentage of inhibition (%) of IL-6 production by HUVEC (neutral-purified IgG 1 ug/mL, IL-33 100 ng/mL) [2] [%]	Kd [3] [pM]	% Active IgG (antigen binding activity after preservation at 40 C for 4 W) [4] [%]	Kd [5] [pM]	Kd [6] [pM]	Kd (EDESYEIYV) [pM]	Kd (LEDESYEIYV) [pM]
A23-1A05 (IgG) (antibody, V domains shown, tested as neutral-purified and as alkaline-purified antibody; also called V8; IGN8) VH: EVQLLESGGGLVQPGGSLRLSCAASGFTFSNYYMHWVRQAPGKGLEWVSSISARSRYHYYADSVKGRFTISRDNSKNTLYLQMNSLRAEDTAVYYCARLATRHNAFDIWGQGTLVTVSS VL: QSVLTQPPSASGTPGQRVTISCSGSSSNIGNNAVSWYQQLPGTAPKLLIYASNMRVIGVPDRFSGSKSGTSASLAISGLRSEDEADYYCGAWDDSQKALVFGGGTKLTVL	195	0.27	97.5	≥ 50	74	231	102	–	–	–	–
A26-1F02 (IgG) (antibody, V domains shown, tested as neutral-purified and as alkaline-purified antibody; also called V18; IGN18) VH: EVQLLESGGGLVQPGGSLRLSCAASGFTFSNYYMHWVRQAPGKGLEWVSSISARSSYLYYADSVKGRFTISRDNSKNTLYLQMNSLRAEDTAVYYCARLATRHVAFDIWGQGTLVTVSS VL: QSVLTQPPSASGTPGQRVTISCSGSSSNIGNNAVNWYQQLPGTAPKLLIYASNMRRPGVPDRFSGSKSGTSASLAISGLRSEDEADYYCEAWDDSQKAVVFGGGTKLTVL	5.3	0.23	98.2	≥ 50	96	10.8	101	10.4	–	–	–
A25-3H04 (IgG) (antibody, V domains shown, tested as neutral-purified and as alkaline-purified antibody; also called V17; IGN17) VH: EVQLLESGGGLVQPGGSLRLSCAASGFTFSRYYMHWVRQAPGKGLEWVSSISAQSSHIYYADSVEGRFTISRDNSKNTLYLQMNSLRAEDTAVYYCARLATRQNAFDIWGQGTLVTVSS VL: QSVLTQPPSASGTPGQRVTISCSGSSSNIGRNAVNWYQQLPGTAPKLLIYASNMRRSGVPDRFSGSKSGTSASLAISGLRSEDEADYYCSAWDDSQKVVVFGGGTKLTVL	7.7	0.21	97.9	≥ 50	97	5.38	102	–	1.5	301000	11000
A25-2C02 (IgG) (antibody, V domains shown, tested as neutral-purified and as alkaline-purified antibody; also called V15; IGN15) VH: EVQLLESGGGLVQPGGSLRLSCAASGFTFSNYYMHWVRQAPGKGLEWVSSISARSSYIYYADSVKGRFTISRDNSKNTLYLQMNSLRAEDTAVYYCARLATRNNAFDIWGQGTLVTVSS VL: QSVLTQPPSASGTPGQRVTISCSGSSSNIGRNAVNWYQQLPGTAPKLLIYASNMRVSGVPDRFSGSKSGTSASLAISGLRSEDEADYYCWAWDDSQKVGVFGGGTKLTVL	0.7	0.19	98.8	≥ 50	96	0.72	100	–	–	–	–
